Data as given in US20260166158A1, “HSP90-BINDING CONJUGATES AND FORMULATIONS THEREOF” (Fusion Pharmaceuticals Inc., priority 2019, published 2026).

Experiments:
[1] = molecular target: T1, purified N-terminal HSP90a (Homo sapiens, UniProt P07900); assay: HSP90 binding, competitive fluorescence polarization assay
T1 construct: 350 ng of N-terminal HSP90a
Procedure: HSP90 binding was determined by a competitive fluorescence polarization assay with purified N-terminal HSP90a. A series of dilutions of the test compounds were prepared with 10% DMSO in assay buffer and 10 μl of the dilution was added to a 100 μl reaction so that the final concentration of DMSO is 1% in all reactions. The reactions were conducted at room temperature for 3 hours in a 100 μl mixture containing assay buffer, 5 nM FITC Labeled Geldanamycin, 350 ng of N-terminal HSP90a, and the test compound. Fluorescence intensity was measured at an excitation of 485 nm and an emission of 530 nm using a Tecan Infinite M1000 microplate reader. Fluorescence intensity is converted to fluorescence polarization using the Tecan Magellan6 software. The fluorescence polarization data were analyzed using the computer software, Graphpad Prism. The fluorescence polarization (FPt) in absence of the compound in each data set was defined as 100% activity. In the absence of protein and the compound, the value of fluorescent polarization (FPb) in each data set was defined as 0% activity. The percent activity in the presence of the compound was calculated according to the following equation: % activity=(FP−FPb)/(FPt−FPb)×100%, where FP=the fluorescence polarization in the presence of the compound. HSP90 binding data are below.

[2] = system: NCI-H460 tumor-bearing mice (lung cancer); assay: Biodistribution: lutetium accumulation in tumor, plasma and healthy tissues by ICP-MS; assay type: in vivo; settings: for % ID/g uptake, H460 tumor, 24 h / % ID/g uptake, H460 tumor, 72 h / % ID/g uptake, Kidney, 24 h / % ID/g uptake, Kidney, 72 h / % ID/g uptake, Liver, 24 h / % ID/g uptake, Liver, 72 h / % ID/g uptake, Plasma, 24 h / % ID/g uptake, Plasma, 72 h: 0.5 mg/kg lutetium conjugate; for % ID/g uptake, H460 tumor, 24 h / % ID/g uptake, Kidney, 24 h / % ID/g uptake, Liver, 24 h / % ID/g uptake, Plasma, 24 h / T/K (Tumor/Kidney ratio) / T/L (Tumor/Liver ratio) / T/P (Tumor/Plasma ratio) / Kidney uptake, % ID/g 24 h / Liver uptake, % ID/g 24 h / Plasma, % ID/g 24 h / Tumor uptake, % ID/g, 24 h: 24 h; for Kidney uptake, % ID/g 24 h / Liver uptake, % ID/g 24 h / Plasma, % ID/g 24 h / Tumor uptake, % ID/g, 24 h: second table
Procedure: Lutetium accumulation was measured in tumor, plasma and healthy tissues of NCI-H460 tumor-bearing mice (lung cancer). NCJ-H460 tumor bearing mice were dosed with 0.5 mg/kg of lutetium conjugates. At the time points indicated, mice were sacrificed and tumor, liver, kidneys and plasma were taken. All tissues were analyzed for lutetium content by ICP-MS, and lutetium uptake in % ID/g determined by the following equation: […]
Biodistribution at 24 h and Tumor/Kidney ratio (T/K), Tumor/Liver ratio (T/L), Tumor/Plasma ratio (T/P) are give in the table below.

NCI-H460 tumor model = assay: Distribution of cold (Lu175) analog of CMP6; assay type: in vivo
Procedure: In yet another study with the NCI-H460 tumor model, the distribution of the cold analog of CMP6 was measured at 24 hours and 72 hours.

[3] = cold analog, 24 hours and 72 hours, FIG. 2

SMILES | Kd [1] [pM] | % ID/g uptake, H460 tumor, 24 h [2] [% ID/g] | % ID/g uptake, H460 tumor, 72 h [2] [% ID/g] | % ID/g uptake, Kidney, 24 h [2] [% ID/g] | % ID/g uptake, Kidney, 72 h [2] [% ID/g] | % ID/g uptake, Liver, 24 h [2] [% ID/g] | % ID/g uptake, Liver, 72 h [2] [% ID/g] | % ID/g uptake, Plasma, 24 h [2] [% ID/g] | % ID/g uptake, Plasma, 72 h [2] [% ID/g] | T/K (Tumor/Kidney ratio) [2] | T/L (Tumor/Liver ratio) [2] | T/P (Tumor/Plasma ratio) [2] | Kidney uptake, % ID/g 24 h [2] [% ID/g] | Liver uptake, % ID/g 24 h [2] [% ID/g] | Plasma, % ID/g 24 h [2] [% ID/g] | Tumor uptake, % ID/g, 24 h [2] [% ID/g] | also measured
CCNC(=O)c1nnc(-c2cc(C(C)C)c(O)cc2O)n1-c1ccc(OC2CCN(C(=O)CCNC(=O)[C@@H](CCC(=O)N3CCC(Oc4ccc(-n5c(C(=O)NCC)nnc5-c5cc(C(C)C)c(O)cc5O)cc4)CC3)NC(=O)CC[C@H](C(=O)O)N3CCN4CCN5CCN(CC3)CC(=O)[O][Lu]([O]C(=O)C5)[O]C(=O)C4)CC2)cc1 [T6] | 450 | 7.00 | 4.52 | 6.77 | 2.57 | 10.70 | 8.90 | 1.65 | 1.89 |  |  |  |  |  |  |  | 
CCNC(=O)c1nnc(-c2cc(C(C)C)c(O)cc2O)n1-c1ccc(CN2CCN(C(=O)CCNC(=O)[C@@H](CCC(=O)N3CCN(Cc4ccc(-n5c(C(=O)NCC)nnc5-c5cc(C(C)C)c(O)cc5O)cc4)CC3)NC(=O)CCNC(=O)[C@@H](CCC(=O)O)NC(=O)[C@@H](CCC(=O)O)NC(=O)[C@@H](CCC(=O)O)NC(=O)COCCOCCNC(=O)CNC(=O)[C@H](CCCCN)NC(=O)CNC(=O)CC[C@H](C(=O)O)N3CCN4CCN5CCN(CC3)CC(=O)[O][Lu]([O]C(=O)C5)[O]C(=O)C4)CC2)cc1 [T9] | 470 | 2.43 | 0.93 | 8.15 | 2.78 | 0.62 | 0.25 | 26.50 | 1.53 |  |  |  |  |  |  |  | 
CCNC(=O)c1nnc(-c2cc(C(C)C)c(O)cc2O)n1-c1ccc(CN2CCN(C(=O)CCNC(=O)[C@@H](CCC(=O)N3CCN(Cc4ccc(-n5c(C(=O)NCC)nnc5-c5cc(C(C)C)c(O)cc5O)cc4)CC3)NC(=O)CCNC(=O)[C@@H](CCC(=O)O)NC(=O)[C@@H](CCC(=O)O)NC(=O)[C@@H](CCC(=O)O)NC(=O)COCCOCCNC(=O)[C@H](Cc3ccccc3)NC(=O)CNC(=O)CNC(=O)CC[C@H](C(=O)O)N3CCN4CCN5CCN(CC3)CC(=O)[O][Lu]([O]C(=O)C5)[O]C(=O)C4)CC2)cc1 [T8] | 480 | 1.00 | 0.44 | 3.24 | 0.84 | 0.30 | 0.07 | 0.17 | 0.00 |  |  |  |  |  |  |  | 
CCNC(=O)c1nnc(-c2cc(C(C)C)c(O)cc2O)n1-c1ccc(CN2CCN(C(=O)CCNC(=O)[C@@H](CCC(=O)N3CCN(Cc4ccc(-n5c(C(=O)NCC)nnc5-c5cc(C(C)C)c(O)cc5O)cc4)CC3)NC(=O)CCNC(=O)[C@@H](CCC(=O)O)NC(=O)[C@@H](CCC(=O)O)NC(=O)[C@@H](CCC(=O)O)NC(=O)COCCOCCNC(=O)[C@H](Cc3ccccc3)NC(=O)CNC(=O)[C@H](CCCCNC(=O)CC[C@H](C(=O)O)N(CC)CCN3CCN4CCN(C)CC(=O)[O][Lu]([O]C(=O)C4)[O]C(=O)C3)NC(=O)CCCc3ccc(I)cc3)CC2)cc1 [T15] | 430 | 2.16 | 0.70 | 12.50 | 4.37 | 1.78 | 1.16 | 2.79 | 0.14 |  |  |  |  |  |  |  | 
CCNC(=O)c1nnc(-c2cc(C(C)C)c(O)cc2O)n1-c1ccc(CN2CCN(C(=O)CCNC(=O)[C@@H](CCC(=O)N3CCN(Cc4ccc(-n5c(C(=O)NCC)nnc5-c5cc(C(C)C)c(O)cc5O)cc4)CC3)NC(=O)CCNC(=O)[C@@H](CCC(=O)O)NC(=O)[C@@H](CCC(=O)O)NC(=O)[C@@H](CCC(=O)O)NC(=O)COCCOCCNC(=O)CC[C@H](C(=O)O)N3CCN4CCN5CCN(CC3)CC(=O)[O][Lu]([O]C(=O)C5)[O]C(=O)C4)CC2)cc1 [T4] | 450 | 3.06 | 2.19 | 4.86 | 2.28 | 0.59 | 0.62 | 0.21 | 0.09 |  |  |  |  |  |  |  | 
CCNC(=O)c1nnc(-c2cc(C(C)C)c(O)cc2O)n1-c1ccc(OC2CCN(C(=O)CCOCCOCCOCCOCCNC(=O)[C@H](CCCCNC(=O)CCCc3ccc(I)cc3)NC(=O)CN3CCN4CCN5CCN(CC3)CC(=O)[O][Lu]([O]C(=O)C4)[O]C(=O)C5)CC2)cc1 [CMP6] |  |  |  |  |  |  |  |  |  | 5.48 | 4.98 | 1.98 | 0.62 | 0.68 | 1.72 | 3.40 | kidney uptake and retention (NCI-H460 tumor model; [3]): significantly reduced kidney uptake and retention; liver uptake (NCI-H460 tumor model; [3]): significantly reduced; tumor to liver and tumor to kidney ratios at 72 hours (NCI-H460 tumor model; cold analog, 72 hours versus 24 hours): enhanced at 72 hours; tumor to liver and tumor to kidney ratios (NCI-H460 tumor model; cold analog, FIG. 2): High tumor to liver and tumor to kidney ratios; tumor retention selectivity (FIG. 2 legend) (NCI-H460 tumor model; non-radioactive analog comprising Lu175): selective tumor retention over kidney and liver
CCNC(=O)c1nnc(-c2cc(C(C)C)c(O)cc2O)n1-c1ccc2c(ccn2CCC2CCN(C(=O)CC[C@H](NC(=O)CC[C@H](C(=O)O)N3CCN4CCN5CCN(CC3)CC(=O)[O][Lu]([O]C(=O)C5)[O]C(=O)C4)C(=O)N3CCC(CCn4ccc5cc(-n6c(C(=O)NCC)nnc6-c6cc(C(C)C)c(O)cc6O)ccc54)CC3)CC2)c1 [T10] | 770 | 3.91 | 3.18 | 14.70 | 7.74 | 7.28 | 4.34 | 2.29 | 0.37 |  |  |  |  |  |  |  | 
CCNC(=O)c1nnc(-c2cc(C(C)C)c(O)cc2O)n1-c1ccc(OC2CCN(C(=O)CCNC(=O)[C@@H](CCC(=O)O)NC(=O)[C@@H](CCC(=O)O)NC(=O)[C@@H](CCC(=O)O)NC(=O)COCCOCCNC(=O)[C@H](CCCCNC(=O)CC[C@H](C(=O)O)N3CCN4CCN5CCN(CC3)CC(=O)[O][Lu]([O]C(=O)C5)[O]C(=O)C4)NC(=O)CCCc3ccc(I)cc3)CC2)cc1 [T11] | 700 | 6.37 | 1.74 | 14.90 | 5.21 | 1.03 | 0.46 | 0.51 | 0.02 |  |  |  |  |  |  |  | 
CCNC(=O)c1nnc(-c2cc(C(C)C)c(O)cc2O)n1-c1ccc(OC2CCN(C(=O)CCOCCOCCOCCOCCOCCOCCOCCOCCOCCOCCOCCOCCNC(=O)[C@H](CCCCNC(=O)CCCc3ccc(I)cc3)NC(=O)CN3CCN4CCN5CCN(CC3)CC(=O)[O][Lu]([O]C(=O)C4)[O]C(=O)C5)CC2)cc1 [CMP5] |  |  |  |  |  |  |  |  |  | 3.05 | 3.17 | 1.42 | 3.95 | 3.80 | 8.48 | 12.05 | 
CCNC(=O)c1nnc(-c2cc(C(C)C)c(O)cc2O)n1-c1ccc(CN2CCN(C(=O)C[C@H](NC(=O)CCNC(=O)[C@@H](CO)NC(=O)[C@@H](CO)NC(=O)[C@@H](CO)NC(=O)CC[C@H](C(=O)O)N3CCN4CCN5CCN(CC3)CC(=O)[O][Lu]([O]C(=O)C5)[O]C(=O)C4)C(=O)N[C@H](C)C(=O)N3CCN(Cc4ccc(-n5c(C(=O)NCC)nnc5-c5cc(C(C)C)c(O)cc5O)cc4)CC3)CC2)cc1 [CMP48] |  |  |  |  |  |  |  |  |  | 3.08 | 2.33 | 4.87 | 1.50 | 1.99 | 0.95 | 4.64 | 
